Here are results for one protein from patent US5919790A, “Hydroxamate inhibitors of interleukin-1β converting enzyme” (Warner-Lambert Company, priority 1997, dated 1999).

Substrate in the data set: CC(=O)N[C@@H](Cc1ccc(O)cc1)C(=O)N[C@H](C(=O)N[C@@H](C)C(=O)N[C@@H](CC(=O)O)C(=O)Nc1ccc2c(C)cc(=O)oc2c1)C(C)C
Briefly: ICE inhibition, Ki, fluorescence assay with Ac-Tyr-Val-Ala-Asp-AMC. Particulars: other: substrate of ICE, HGDE buffer. It is filed as biochemical. As to the method: Substrate hydrolysis is monitored for 300 seconds by observing the fluorescence of released AMC using excitation at 380 nm and emission at 460 nm. Mean rates of substrate hydrolysis are evaluated by linear-regression analysis of the fluorescence vs time traces. […] ICE Colorimetric Dose-Response (IC50) Assay

B1: ICE (interleukin-1β converting enzyme) (Homo sapiens) (protein)
chain 1: NPAMPTSSGSEGNVKLCSLEEAQRIWKQKSAEIYPIMDKSSRTRLALIICNEEFDSIPRRTGAEVDITGMTMLLQNLGYSVDVKKNLTASDMTTELEAFAHRPEHKTSDSTFLVFMSHGIREGICGKKHSEQVPDILQLNAIFNMLNTKNCPSLKDKPKVIIIQACRGDSPGVVWFKD
chain 2: AIKKAHIEKDFIAFCSSTPDNVSWRHPTMGSVFIGRLIEHMQEYACSCDVEEIFRKVRFSFEQPDGRAQMPTTERVTLTRCFYLFPGH
B1: the Km came to 15 µM.
